Legend:
[1] = system: toxic myocarditis caused by Adriamycin in rat; test: Serum troponin T (cTnT) level, Adriamycin rat model; assay type: in vivo, SD rat; details: Adriamycin model, (I)
Procedure: 2 ml of arterial blood was withdrawn, serum extracted, frozen and stored at −20° C., determination of serum cTnT content was performed with electrochemistry irradiate method submitted to be carried out by Clinical Laboratory of Zhong Shan Hospital.

[2] = system: heart failure in rat caused by ligation of coronary artery; test: Nagar-Oslen staining of ischemic hypoxic myocardium; assay type: in vivo, SD rat
From the text: After fixed with 10% formaldehyde, myocardium of the rat was longitudinally cut with equal distance into 3 slices, conventionally embedded with paraffin, section made, HE stained, image analysis for area of fibrotic region of the heart, counted the number of capillary in the fibrotic lesion (counting unit: piece/mm^2); Nagar-Oslen stained, studied the size of ischemic hypoxic region in the myocardium.
In Nagar-Oslen stained section, normal myocardium stained with light yellow color, while ischemic hypoxic area stained deeper with reddish color. Ischemic hypoxic changes could be analyzed with this method and comparison of qualitative and semi-quantitative test could be made.

[3] = system: heart failure in rat caused by ligation of coronary artery; test: Echocardiography heart function, heart failure by ligation of coronary artery; assay type: in vivo, SD rat
[4] = system: acute myocardial injury caused by viral (Coxsackie B3) infection in mice; test: Echocardiography heart function, mice infected with Coxsackie B3 virus; assay type: in vivo, BALB/C mice
Procedure: Drug administration of both the testing drug group and the model group was intravenous injection into the tail vein of mice, once every day (qd), for consecutive 5 days, volume of each of the drug administered was 0.2 ml/animal.
0.2 ml of 100×TCID50 CVB3 provided by Zhong Shan Hospital affiliated to Fudan University was injected intra-abdominally and established myocarditis model. Within the following week, the mouse manifested pilo-erection, depilation, emaciation, dullness and death, about half of the tested animals died at the 8th day.
Intravenous injection of the testing drug into the tail vein was carried out the same day of intra-abdominal viral infection in mice, the injection was performed for consecutive 5 days, animal survival rate was monitored, after completion of the experiment, echocardiograph, myocardial pathologic examination, serum troponin determination were carried out.
Chest depilating was performed at the 7th day of viral injection, then the mouse was fixed on special made fixed mount and echocardiograph was carried out with S12 high-frequency probe, the main index included: • EF: ejection fraction of left ventricle, being major index reflecting ejection function of left ventricle; • FS: shortening fraction of left ventricle, index reflecting contraction function of left ventricle; • LVDd: diastolic maximal inner diameter (cm); • LVDs: systolic minimal inner diameter (cm). 7.3.3.2 Determination of Serum Troponin I (cTnI) in Mice
• Normal mice control group, model group and testing drug group were set up; • Normal mice control group (n=10); • Model group (n=20): Prepared buffer solution was injected; • Testing drug group (n=20): 30 μg/kg of rhNRG-1 β was administered for 3, 5 and 7 consecutive days as three difference therapeutic courses with 20 animals assigned for each group; • Placebo control group (n=20): Intra-abdominal injection of non-CVB3 freeze-thaw cellular supernatant, 0.2 ml/animal. 10.2 Dosage Set Up, Preparation of Testing Drug, Route of Drug Administration, Times of Drug Administration, Concentration and Volume of the Testing Drug • rhNRG-1β was diluted with preparation buffer solution (10 mM PB, 0.2% human serum albumin, 5% mannitol to needed concentration; • Three drug administration groups were set up, intravenous injection for consecutive 3-day, 5-day and 7-day, drug volume for each dose was 0.2 ml/animal; • Drug administration of the model group was intravenous injection into the tail vein of mice, once every day (qd), for consecutive 7 days, drug volume for each dose was 0.2 ml/animal. 7.3 Method of the Experiment 7.3.1 Set Up of Acute Viral Myocariditis Animal Model in Mice

[5] = 7.5 μg/kg iv qd × 5, 7th day, (I)
[6] = 7.5 μg/kg iv qd × 5, 7th day, (II)
[7] = 15 μg/kg iv qd × 5, 7th day, (I)
[8] = 15 μg/kg iv qd × 5, 7th day, (I), listed as rhNRG-1β
[9] = 15 μg/kg iv qd × 5, 7th day, (II)
[10] = 30 μg/kg iv qd × 3, 7th day, (I)
[11] = 30 μg/kg iv qd × 3, 7th day, (I), listed as rhNRG-1β
[12] = 30 μg/kg iv qd × 3, 7th day, (II)
[13] = 30 μg/kg iv qd × 5, 7th day, (I)
[14] = 30 μg/kg iv qd × 5, 7th day, (I), listed as hNRG-1β
[15] = 30 μg/kg iv qd × 5, 7th day, (II)
[16] = 30 μg/kg iv qd × 5, 7th day, Example 5 (I)
[17] = 30 μg/kg iv qd × 5, 7th day, Example 5 (I), listed as rhNRG-1β
[18] = 30 μg/kg iv qd × 5, 7th day, Example 5 (II)
[19] = 30 μg/kg iv qd × 7, 7th day, (I)
[20] = 30 μg/kg iv qd × 7, 7th day, (I), listed as rhNRG-1β
[21] = 30 μg/kg iv qd × 7, 7th day, (II)

B1: rhNRG-1 β: Recombinant human neuregulin fragment of 61 amino acid (SEQ ID NO:4), 3 disulfide bonds, expressed in E. coli (protein, listed as Homo sapiens)
chain: SHLVKCAEKEKTFCVNGGECFMVKDLSNPSRYLCKCPNEFTGDRCQNYVMASFYKAEELYQ
modifications: disulfide (positions not given here)
- cTnT ([1]; 10 μg/kg iv qd × 10 d): 0.074 ± 0.024 ng/mL
- cTnT ([1]; 10 μg/kg iv qd × 10 d, listed as rhNRG-1β): 0.074 ± 0.024 ng/mL
- cTnT ([1]; 20 μg/kg iv qd × 10 d): 0.031 ± 0.006 ng/mL
- cTnT ([1]; 20 μg/kg iv qd × 10 d, listed as rhNRG-1β): 0.031 ± 0.006 ng/mL
- cTnT ([1]; 40 μg/kg iv qd × 10 d): 0.025 ± 0.011 ng/mL
- cTnT ([1]; 40 μg/kg iv qd × 10 d, listed as rhNRG-1β): 0.025 ± 0.011 ng/mL
- red stained (ischemic hypoxic) tissue, Nagar-Oslen stain ([2]; 5 μg/kg): patchy distribution
- red stained (ischemic hypoxic) tissue, Nagar-Oslen stain ([2]; 10 μg/kg): patchy distribution
- red stained (ischemic hypoxic) myocardial cells, Nagar-Oslen stain ([2]; 20 μg/kg): punctuate distribution
- EF value ([3]; 5 μg/kg, after ligation prior to drug administration, long-term monitoring): 53.1 ± 12.8%
- time the changes of ejection fraction maintain after the drug administration ([3]; 20 μg/kg): about 35 days
- EF value ([3]; 20 μg/kg, 5-day after drug administration and 35-day after drug withdrawal): 73.0 ± 20.3 %
- EF [4, 5]: 78.1 ± 9.3%
- FS [4, 5]: 41.7 ± 9.6%
- LVDd [4, 5]: 0.191 ± 0.012 cm
- LVDs [4, 5]: 0.114 ± 0.028 cm
- EF [4, 6]: 71.9 ± 6.69%
- FS [4, 6]: 35.7 ± 5.60%
- LVDd [4, 6]: 0.213 ± 0.009 cm
- LVDs [4, 6]: 0.133 ± 0.015 cm
- EF [4, 7]: 86.0±2.9%
- FS [4, 7]: 50.7±4.3%
- LVDd [4, 7]: 0.189±0.008 cm
- LVDs [4, 7]: 0.099±0.027 cm
- EF [4, 8]: 81.3 ± 6.28 %
- FS [4, 8]: 44.5 ± 8.27 %
- LVDd [4, 8]: 0.189 ± 0.008 cm
- LVDs [4, 8]: 0.099 ± 0.027 cm
- EF [4, 9]: 81.6 ± 4.59 %
- FS [4, 9]: 44.9 ± 5.68 %
- LVDd [4, 9]: 0.201 ± 0.011 cm
- LVDs [4, 9]: 0.114 ± 0.018 cm
- EF [4, 10]: 73.1±6.6%
- FS [4, 10]: 36.7 ± 4.7%
- LVDd [4, 10]: 0.194 ± 0.008 cm
- LVDs [4, 10]: 0.123±0.012 cm
- EF [4, 11]: 73.1 ± 6.6%
- LVDs [4, 11]: 0.123 ± 0.012 cm
- EF [4, 12]: 81.0 ± 5.4%
- FS [4, 12]: 43.9 ± 5.1%
- LVDd [4, 12]: 0.211 ± 0.016 cm
- LVDs [4, 12]: 0.121 ± 0.016 cm
- EF [4, 13]: 90.2±2.5%
- FS [4, 13]: 55.7±2.1%
- LVDd [4, 13]: 0.187±0.006 cm
- LVDs [4, 13]: 0.085±0.009 cm
- EF [4, 14]: 90.2 ± 2.5 %
- FS [4, 14]: 55.7 ± 2.1 %
- LVDd [4, 14]: 0.187 ± 0.006 cm
- LVDs [4, 14]: 0.085 ± 0.009 cm
- EF [4, 15]: 87.7 ± 3.76 %
- FS [4, 15]: 51.8 ± 5.24 %
- LVDd [4, 15]: 0.196 ± 0.011 cm
- LVDs [4, 15]: 0.094 ± 0.011 cm
- EF [4, 16]: 86.8±4.4%
- FS [4, 16]: 51.9±5.8%
- LVDd [4, 16]: 0.187 ± 0.006 cm
- LVDs [4, 16]: 0.090±0.011 cm
- EF [4, 17]: 86.8 ± 4.4%
- FS [4, 17]: 51.9 ± 5.8%
- LVDs [4, 17]: 0.090 ± 0.011 cm
- EF [4, 18]: 85.8 ± 4.205%
- FS [4, 18]: 50.0 ± 6.350%
- LVDd [4, 18]: 0.199 ± 0.000 cm
- LVDs [4, 18]: 0.100 ± 0.014 cm
- EF [4, 19]: 87.0±3.3%
- FS [4, 19]: 51.8±5.1%
- LVDd [4, 19]: 0.192 ± 0.008 cm
- LVDs [4, 19]: 0.092±0.012 cm
- EF [4, 20]: 87.0 ± 3.3%
- FS [4, 20]: 51.8 ± 5.1%
- LVDs [4, 20]: 0.092 ± 0.012 cm
- EF [4, 21]: 87.283 ± 1.694%
- FS [4, 21]: 52.367 ± 1.847%
- LVDd [4, 21]: 0.194 ± 0.017 cm
- LVDs [4, 21]: 0.092 ± 0.008 cm
